The experiment concerns the target T1, BG505 SOSIP.D664 (HIV-1 isolate BG505 (clade A), stabilised).
T1 construct: also called BG505.SOSIP.664; source: HEK 293F, co-transfected with furin, purified (HisTrap, SEC); copies: 3 + 3
Put plainly: SPR; IgG captured as ligand by anti-human IgG (Human Antibody Capture Kit) on a GLC chip, ProteOn XPR36; trimer as analyte; 1x HBS-EP+ pH 7.4 with 1 mg/ml BSA; 1:1 binding model; highest SOSIP concentration 5 uM or 10 uM. To be noted: both partners purified.

B1: PG9.iGL (antibody, V domains shown)
VH: QVQLVESGGGVVQPGRSLRLSCAASGFTFSSYGMHWVRQAPGKGLEWVAVISYDGSNKYYADSVKGRFTISRDNSKNTLYLQMNSLRAEDTAVYYCAREAGGPDYRNGYNYYDFWSGYYYYYYMDVWGKGTTVTVSS
VL: QSALTQPASVSGSPGQSITISCTGTSSDVGGYNYVSWYQQHPGKAPKLMIYEVSNRPSGVSNRFSGSKSGNTASLTISGLQAEDEADYYCSSYTSSSTVVFGGGTKLTVL
B1 returned a Kd above 5 µM.

B2: PCT64.13C (antibody, V domains shown)
VH: EVQLVESGGGLVKPGGSLRLSCAASGFTFTNAWLDWVRQAPGKGLEWVGRIKSKTDGGTTDHAAPVKGRFTISRDDSKNTVYLQMNSLKIEDTAVYYCTTGVETYDFWSGYDDHYYDYYFKDVWGKGTTVTVSS
VL: EIVLTQSPGTLSLSPGERATLSCRASQSVSNNYLAWYQQKPGQAPRLLIYGASSRATGIPDRFSGSGSGTDFTLTISRLEPEDFAVYYCQQSARSFTFGPGTKVDIK
In the case of B2, the dissociation constant Kd was above 5 µM.

The values above are taken from paper PMC9671094 (Immunity, 2022).
